Data set [1] deals with T1, IslA (isethionate sulfite-lyase) (Bilophila wadsworthia, UniProt E5Y378).
T1 construct: full length, 830 residues, N-terminal His-tag kept (pET-28a), expressed in E. coli BL21(DE3); homodimer
The data set is described as follows: X-ray crystal structure, […] Å. The settings on record: unactivated enzyme, aerobic, 30 mM sodium isethionate, pH 7.5, 22 °C; active site. The format is binding.

The subject of data set [2] is O=S(=O)(O)CCO. The data set is described as follows: purified protein. As to conditions: IslA activated by IslB and S-adenosylmethionine, anoxic, 30 °C, isethionate 1-50 mM, kcat not normalized to glycyl radical content.
The subject of data set [3] is O=S(=O)(O)CCO. In words: purified protein. As to conditions: IslA activated by IslB and S-adenosylmethionine, anoxic, 30 °C, isethionate 1-50 mM, kcat not normalized to glycyl radical content. The format is biochemical, Bilophila wadsworthia.
Data set [4] deals with the molecule itself. The data set is described as follows: crystal structure; hanging drop vapor diffusion at 22°C, aerobic; unactivated IslA with intact N-terminal His-tag, 7.5 mg/mL in 50 mM HEPES pH 7.5, 50 mM NaCl; glycerol-bound (2.26 Å, P21212) and isethionate-bound (2.70 Å, P212121) crystal forms.

On to `O=S(=O)(O)CCO` [isethionate, 2-hydroxyethanesulfonate], for which the “X-ray crystal structure, 2.70 Å” value in data set [1] is “a second IslA structure with the substrate Ise bound was obtained”.

With “IslA (isethionate sulfite-lyase) (Bilophila wadsworthia 3_1_6)”, in data set [2], the Michaelis constant (Km) was determined as 8 ± 2 mM.

Consider “IslA (isethionate sulfite-lyase) (Bilophila wadsworthia 3_1_6; F682A)”, for which, in data set [3], the Km worked out at 6.8 ± 0.6 mM and the catalytic constant (kcat) turned out to be 0.0171 ± 0.0004 s⁻¹.

For “IslA (isethionate sulfite-lyase) (Bilophila wadsworthia 3_1_6; F682Y)”, in data set [3], the Km stood at 8 ± 1 mM and the kcat worked out at 0.0074 ± 0.0003 s⁻¹.

Take “IslA (isethionate sulfite-lyase) (Bilophila wadsworthia 3_1_6; I192A)”: in data set [3], the Km came to 12 ± 2 mM and the kcat came out at 0.4 ± 0.02 s⁻¹.

“IslA (isethionate sulfite-lyase) (Bilophila wadsworthia 3_1_6; W374F)”: in data set [3], the Km turned out to be 11 ± 1 mM and the kcat worked out at 0.063 ± 0.003 s⁻¹.

With “IslA (isethionate sulfite-lyase) (Bilophila wadsworthia 3_1_6; W374Y)”, in data set [3], the Km was found to be 16.0 ± 0.9 mM and the kcat stood at 0.14 ± 0.003 s⁻¹.

B1: isethionate sulfite-lyase (IslA) from Bilophila wadsworthia 3.1.6 (enzyme)
chain: MTQVAEIKSPHEQRLEDNIAGKEDIYRESHKRVFKLLERFDGQKPAIDVERALYFTQSMAETVGQPLVLRWAKALMNVAKNITVMVQDDQLLLGRCGGHDGRYGILYPELDGDFLDIAVRDLPTRPQSPASISPEDAKIVVEQIAPFWKGRTYHEALNKALPAEVHKLTYDDPDGLISRFIVNETSSFRSSIQWVHDYEVVLKRGFNGLKQEMEEKLAALDPASPVDQVDKRPFIEATILVCDAIVLWAKRHADAARKAAEACADPVRKAELIRMAENAEHVPANPARDFYEAVQSQYFTQMFSRLEQKTGTTISNGRMDQYFYPFYKKDMEAGILTDEKTLEYLECMWVGMAEFIDMYISPAGGAFNEGYAHWEAVTIGGQTPDGRDATNDLTYLFLKSKREFPLHYPDLAARIHSRAPERYLWDVAETIKFGSGFPKLCNDEECIPLYVSKGATFEEALDYAVSGCIEIRMPNRDTYTSGGAYTNFASAVEMALYDGKMKKYGDVQLGIQTGDARKFKSWDEFWNAYVQQHMLLLRTTFIQQYIVIQTRAKHFAQPMGSVLHALCRKHCIDLHQPQIPEGLNFGYFEFMGLGTVIDSLAAIKKLVFEDKKLTMDQLIDALEANFEGYEDIQQLLRTAPCYGNDDEYADEIGRELDRMAVSFAAKYGKEMGINNDARYVPFTSHVPFGKVVSATPNGRVAWFPLADGSSPSHGADHNGPTAILLSNHNTKNYGMRARAARLINVKFTPKCVEGDAGTEKLVQFIRTWCDLKLWHIQFNVINADTLKKAQKDPQKYRNLIVRIAGYSAYFVDLTPDLQNDLIARTGHDQM
notes: Isethionate sulfite-lyase IslA, Bilophila wadsworthia 3.1.6, wild type; expressed from pET-28a-IslA (Peck et al., 2019); It calls the structure native/wild-type and gives '6-830 (of 830 residues)', so the whole protein is likely, but the words 'full length' are not used; also called IsIA; wild-type IslA; source: E. coli BL21(DE3), purified (Ni-NTA, dialysis); not shown: His-tag, N-terminal, kept
As to B1, in data set [4], the “stoichiometry N” value was 2.

These data come from PMC8473560, “Molecular basis of C-S bond cleavage in the glycyl radical enzyme isethionate sulfite-lyase” (Cell Chemical Biology, 2021).
